From article PMC11117858, “APPROACH: Sensitive Detection of Exosomal Biomarkers by Aptamer-Mediated Proximity Ligation Assay and Time-Resolved Förster Resonance Energy Transfer”

Molecular target: CD63 on SH-SY5Y exosomes (UniProt P08962 2-238)
Experiment: flow cytometry on exosome-coated microspheres; 200 nM probe; 5 mM Mg2+; about 10^3-fold (printed 103-fold) fluorescence over control and MU-Cy5; 1x PBS, 5 mM MgCl2, 0.2% BSA (w/v), 37 C, 1 h; exosome-coated microspheres blocked with glycine/BSA; pH not stated
Conditions: protein: native; label: 3' Cy5

Sequence of CD63 on SH-SY5Y exosomes (P08962 2-238): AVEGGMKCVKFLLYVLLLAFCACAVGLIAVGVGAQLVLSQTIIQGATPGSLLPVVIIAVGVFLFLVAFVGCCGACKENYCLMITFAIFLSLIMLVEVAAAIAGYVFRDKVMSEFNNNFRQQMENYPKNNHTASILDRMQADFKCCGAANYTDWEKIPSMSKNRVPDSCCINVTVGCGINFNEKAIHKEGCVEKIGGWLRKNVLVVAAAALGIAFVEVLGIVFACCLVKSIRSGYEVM

B1: Apt-CD63-Cy5 (ssDNA)
DNA: ATATACACCCCACCTCGCTCCCGTGACACTAATGCTATTTTTTTTTTTTTTTGACGCTAATAGTTAAGACGCT
binding result: binds
